Test results from patent publication US20260055210A1 (MONTEFIORE MEDICAL CENTER, published 2026).
Values belong to the binder of their own block, whether it stands above or below them.

Target: T1, Human IgG1 Fc (human, UniProt P01857-1 100-330 = IgG part, limits assumed)
T1 construct: domain: Fc; Negative control; also called human IgG1 Fc domain
Assay: flow cytometry, percent of bound cells, cMPL-expressing HEK293 cells
Text: To study the binding capabilities of the fusion polypeptide provided herein to thrombopoietin receptors, the fusion polypeptides were contacted with cells expressing thrombopoietin receptor cMPL. Mouse or human thrombopoietin receptor cMPL was expressed on the surface of Freestyle™ HEK293 cell line. Mouse or human thrombopoietin receptor cMPL were expressed as a fusion polypeptide with either GPF or mCherry. Expression of cMPL receptors was confirmed by measuring fluorescent signal. As a general control, PD1 protein binding to PDL1-expressing cells was used. Human IgG1 Fc and secondary antibody were used as a negative control since they would not be expected to bind to cMPL. […] The cMPL expressing cells were treated with Nplate (Romiplostim) as the positive control. FLT3L-romiplostim fusion polypeptide with a His-Tag, FLT3L-romiplostim fusion polypeptide without a His-Tag were tested. Binding was analyzed using a fluorescent secondary antibody against IgG1 domain of the polypeptide. The percentages of cells bound to the tested polypeptide were quantified.

binding result: no binding
B1: mouse thrombopoietin receptor cMPL expressed on the surface of Freestyle HEK293 cells (receptor, UniProt Q08351 26-625, looked up)
chain: QDVFLLALGTEPLNCFSQTFEDLTCFWDEEEAAPSGTYQLLYAYRGEKPRACPLYSQSVPTFGTRYVCQFPAQDEVRLFFPLHLWVKNVSLNQTLIQRVLFVDSVGLPAPPRVIKARGGSQPGELQIHWEAPAPEISDFLRHELRYGPTDSSNATAPSVIQLLSTETCCPTLWMPNPVPVLDQPPCVHPTASQPHGPAPFLTVKGGSCLVSGLQAGKSYWLQLRSQPDGVSLRGSWGPWSFPVTVDLPGDAVTIGLQCFTLDLKMVTCQWQQQDRTSSQGFFRHSRTRCCPTDRDPTWEKCEEEEPRPGSQPALVSRCHFKSRNDSVIHILVEVTTAQGAVHSYLGSPFWIHQAVLLPTPSLHWREVSSGRLELEWQHQSSWAAQETCYQLRYTGEGREDWKVLEPSLGARGGTLELRPRARYSLQLRARLNGPTYQGPWSAWSPPARVSTGSETAWITLVTALLLVLSLSALLGLLLLKWQFPAHYRRLRHALWPSLPDLHRVLGQYLRDTAALSPSKATVTDSCEEVEPSLLEILPKSSESTPLPLCPSQPQMDYRGLQPCLRTMPLSVCPPMAETGSCCTTHIANHSYLPLSYWQQP
notes: whole, on cells; also called mouse cMPL; mouse cMLP; not shown: Fused with either GFP (printed 'GPF') or mCherry

binding result: no binding
B2: human thrombopoietin receptor cMPL expressed on the surface of Freestyle HEK293 cells (receptor, UniProt P40238 26-635, looked up)
chain: QDVSLLASDSEPLKCFSRTFEDLTCFWDEEEAAPSGTYQLLYAYPREKPRACPLSSQSMPHFGTRYVCQFPDQEEVRLFFPLHLWVKNVFLNQTRTQRVLFVDSVGLPAPPSIIKAMGGSQPGELQISWEEPAPEISDFLRYELRYGPRDPKNSTGPTVIQLIATETCCPALQRPHSASALDQSPCAQPTMPWQDGPKQTSPSREASALTAEGGSCLISGLQPGNSYWLQLRSEPDGISLGGSWGSWSLPVTVDLPGDAVALGLQCFTLDLKNVTCQWQQQDHASSQGFFYHSRARCCPRDRYPIWENCEEEEKTNPGLQTPQFSRCHFKSRNDSIIHILVEVTTAPGTVHSYLGSPFWIHQAVRLPTPNLHWREISSGHLELEWQHPSSWAAQETCYQLRYTGEGHQDWKVLEPPLGARGGTLELRPRSRYRLQLRARLNGPTYQGPWSSWSDPTRVETATETAWISLVTALHLVLGLSAVLGLLLLRWQFPAHYRRLRHALWPSLPDLHRVLGQYLRDTAALSPPKATVSDTCEEVEPSLLEILPKSSERTPLPLCSSQAQMDYRRLQPSCLGTMPLSVCPPMAESGSCCTTHIANHSYLPLSYWQQP
notes: whole, on cells; also called human cMPL; human cMLP; not shown: Fused with either GFP (printed 'GPF') or mCherry
